According to publication PMC7052508 (Biochemistry and Biophysics Reports, 2020):
Where two headings read alike, the source gives them in different places.

B1: α-crystallin (fraction containing αA-crystallin and αB-crystallin) (complex, porcine (purified from porcine lenses))
chain 1: MDIAIQHPWFKRALGPFYPSRLFDQFFGEGLFEYDLLPFLSSTISPYYRQSLFRTVLDSGVSEVRSDRDKFVIFLDVKHFSPEDLTVKVQEDFVEIHGKHNERQDDHGYISREFHRRYRLPSNVDQSALSCSLSADGMLTFSGPKVPSGVDAGHSERAIPVSREEKPSSAPTS
chain 2: MDIAIHHPWIRRPFFPFHSPSRLFDQFFGEHLLESDLFPASTSLSPFYFRPPSFLRAPSWIDTGLSEMRLEKDRFSVNLDVKHFSPEELKVKVLGDVIEVHGKHEERQDEHGFISREFHRKYRIPADVDPLTITSSLSSDGVLTVNGPRRQASGPERTIPITREEKPAVTAAPKK
B2: creatine kinase M (CKMM) (enzyme)
chain: not shown

Key:
creatine kinase M (CKMM) [1] = biological target: B2; test: ITC
creatine kinase M (CKMM) [2] = biological target: B2; test: ITC; remark: listed apart in the source
SEC-MALS = biological target: the molecule itself; test: SEC-MALS
creatine kinase M (CKMM) [3] = biological target: B2; test: ITC; remark: listed apart in the source
[4] = biological target: B1; test: ITC
[5] = biological target: B1; test: ITC; remark: listed apart in the source
[6] = biological target: B1; test: ITC; remark: listed apart in the source
[7] = biological target: B1; test: ITC; remark: listed apart in the source

Sequence of creatine kinase M (CKMM) (P00563 whole entry): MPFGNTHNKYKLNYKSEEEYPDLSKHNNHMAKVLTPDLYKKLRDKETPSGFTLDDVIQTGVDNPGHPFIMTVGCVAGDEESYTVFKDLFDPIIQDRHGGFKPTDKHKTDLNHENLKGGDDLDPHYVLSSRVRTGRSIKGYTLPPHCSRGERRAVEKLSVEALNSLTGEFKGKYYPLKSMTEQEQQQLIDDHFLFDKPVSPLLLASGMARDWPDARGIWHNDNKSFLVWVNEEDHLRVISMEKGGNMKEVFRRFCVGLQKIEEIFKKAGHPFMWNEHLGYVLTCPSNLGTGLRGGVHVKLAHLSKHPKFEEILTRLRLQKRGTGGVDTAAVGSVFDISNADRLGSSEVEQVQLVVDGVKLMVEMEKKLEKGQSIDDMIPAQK

Binder	Ka (creatine kinase M (CKMM) [1])	Kd (creatine kinase M (CKMM) [1])	Ka (creatine kinase M (CKMM) [2])	Kd (creatine kinase M (CKMM) [2])	stoichiometry N (SEC-MALS)	Ka (creatine kinase M (CKMM) [3])	Kd (creatine kinase M (CKMM) [3])	stoichiometry N [4]	dH [5]	stoichiometry N [5]	dH [6]	stoichiometry N [6]	dH [7]	stoichiometry N [7]
B1	3e+06 M⁻¹	333 nM	1.23e+06 M⁻¹	816 nM	28 to 40	4.37e+06 M⁻¹	228 nM							
B2								28	86.6 kcal/mol	0.068	102 kcal/mol	0.068	130 kcal/mol	0.063
